Among the data in PMC6426840 are MMP2 enzyme activity left (fluorogenic peptide MCA-Pro-Leu-Ala-Nva-Dpa-Ala-Arg-NH2, endpoint after 5 h) with 100 ng/mL rhMMP2 and 40 ng/mL rhTIMP3, molecular ratio about 1:1, without GAG and TIMP3-induced inhibition of MMP2 enzyme activity when hyaluronan (HA, 200 µg/mL) is added to MMP2 and TIMP3 pre-incubated for 30 min values, retold here.

For this assay, the target named is recombinant human matrix metalloproteinase-2 (rh-proMMP2 activated with APMA) (human) (UniProt P08253).
Chain of UniProt P08253 (P08253 30-660): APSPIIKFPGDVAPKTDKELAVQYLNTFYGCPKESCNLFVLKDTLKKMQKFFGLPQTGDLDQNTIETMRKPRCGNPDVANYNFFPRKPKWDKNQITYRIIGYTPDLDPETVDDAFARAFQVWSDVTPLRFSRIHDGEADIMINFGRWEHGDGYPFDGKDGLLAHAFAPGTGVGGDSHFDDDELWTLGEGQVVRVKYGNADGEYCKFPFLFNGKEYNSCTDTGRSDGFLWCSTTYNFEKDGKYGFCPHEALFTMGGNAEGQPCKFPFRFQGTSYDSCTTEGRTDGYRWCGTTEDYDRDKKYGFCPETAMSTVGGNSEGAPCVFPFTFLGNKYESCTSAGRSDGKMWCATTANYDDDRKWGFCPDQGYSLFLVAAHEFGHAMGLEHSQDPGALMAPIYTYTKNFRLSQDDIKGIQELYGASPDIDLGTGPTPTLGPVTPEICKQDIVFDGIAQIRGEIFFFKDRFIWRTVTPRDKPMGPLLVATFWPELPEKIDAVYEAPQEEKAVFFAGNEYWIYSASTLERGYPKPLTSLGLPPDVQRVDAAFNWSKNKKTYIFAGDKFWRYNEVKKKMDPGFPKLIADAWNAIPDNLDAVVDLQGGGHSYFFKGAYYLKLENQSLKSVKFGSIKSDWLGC

B1: recombinant human tissue inhibitor of metalloproteinases 3 (natural protein)
chain: CTCSPSHPQDAFCNSDIVIRAKVVGKKLVKEGPFGTLVYTIKQMKMYRGFTKMPHVQYIHTEASESLCGLKLEVNKYQYLLTGRVYDGKMYTGLCNFVERWDQLTLSQRKGLNYRYHLGCNCKIKSCYYLPCFVTSKNECLWTDMLSNFGYPGYQSKHYACIRQKGGYCSWYRGWAPPDKSIINATDP
B1: the MMP2 enzyme activity left (fluorogenic peptide MCA-Pro-Leu-Ala-Nva-Dpa-Ala-Arg-NH2, endpoint after 5 h) with 100 ng/mL rhMMP2 and 40 ng/mL rhTIMP3, molecular ratio about 1:1, without GAG came out at 15%; the TIMP3-induced inhibition of MMP2 enzyme activity when hyaluronan (HA, 200 µg/mL) is added to MMP2 and TIMP3 pre-incubated for 30 min at 25 °C; change against the control without GAG stood at 5%.
